These results are taken from PMC5409509.

The experiment has as its target Yeast wild-type Mlh1-Mlh3 (yeast (S. cerevisiae)) (UniProt P38920).

B1: Yeast wild-type Mlh1-Mlh3 (complex)
chain 1: MSLRIKALDASVVNKIAAGEIIISPVNALKEMMENSIDANATMIDILVKEGGIKVLQITDNGSGINKADLPILCERFTTSKLQKFEDLSQIQTYGFRGEALASISHVARVTVTTKVKEDRCAWRVSYAEGKMLESPKPVAGKDGTTILVEDLFFNIPSRLRALRSHNDEYSKILDVVGRYAIHSKDIGFSCKKFGDSNYSLSVKPSYTVQDRIRTVFNKSVASNLITFHISKVEDLNLESVDGKVCNLNFISKKSISPIFFINNRLVTCDLLRRALNSVYSNYLPKGNRPFIYLGIVIDPAAVDVNVHPTKREVRFLSQDEIIEKIANQLHAELSAIDTSRTFKASSISTNKPESLIPFNDTIESDRNRKSLRQAQVVENSYTTANSQLRKAKRQENKLVRIDASQAKITSFLSSSQQFNFEGSSTKRQLSEPKVTNVSHSQEAEKLTLNESEQPRDANTINDNDLKDQPKKKQKLGDYKVPSIADDEKNALPISKDGYIRVPKERVNVNLTSIKKLREKVDDSIHRELTDIFANLNYVGVVDEERRLAAIQHDLKLFLIDYGSVCYELFYQIGLTDFANFGKINLQSTNVSDDIVLYNLLSEFDELNDDASKEKIISKIWDMSSMLNEYYSIELVNDGLDNDLKSVKLKSLPLLLKGYIPSLVKLPFFIYRLGKEVDWEDEQECLDGILREIALLYIPDMVPKVDTSDASLSEDEKAQFINRKEHISSLLEHVLFPCIKRRFLAPRHILKDVVEIANLPDLYKVFERC
chain 2: MSQHIRKLDSDVSERLKSQACTVSLASAVREIVQNSVDAHATTIDVMIDLPNLSFAVYDDGIGLTRSDLNILATQNYTSKIRKMNDLVTMKTYGYRGDALYSISNVSNLFVCSKKKDYNSAWMRKFPSKSVMLSENTILPIDPFWKICPWSRTKSGTVVIVEDMLYNLPVRRRILKEEPPFKTFNTIKADMLQILVMHPMISLNVQYTDKLRINTEVLFRSKNITEGLTKHQQMSQVLRNVFGAIIPPDMLKKVSLKFNEYQIEGIISKMPVGLKDLQFIYINGRRYADSAFQGYVDSLFQAQDFGEKGMSLLKTKSVGKPYRSHPVFILDVRCPQTIDDLLQDPAKKIVKPSHIRTIEPLIVKTIRSFLTFQGYLTPDKSDSSFEIVNCSQKTATLPDSRIQISKRNQVLNSKMKIARINSYIGKPAVNGCRINNSTINYEKIKNIRIDGQKSRLRNKLSSRPYDSGFTEDYDSIGKTITDFSISRSVLAKYEVINQVDKKFILIRCLDQSIHNCPLLVLVDQHACDERIRLEELFYSLLTEVVTGTFVARDLKDCCIEVDRTEADLFKHYQSEFKKWGIGYETIEGTMETSLLEIKTLPEMLTSKYNGDKDYLKMVLLQHAHDLKDFKKLPMDLSHFENYTSVDKLYWWKYSSCVPTVFHEILNSKACRSAVMFGDELTRQECIILISKLSRCHNPFECAHGRPSMVPIAELK
Take B1: the endonuclease activity on circular dsDNA: ratio of Mlh1-Mlh3 to 2.7 kb plasmid at the optimum of activity (Mlh1-Mlh3 per 2.7 kb plasmid) was found to be 100.
